Km and kcat/Km data for 1 protein are collected here from publication PMC4025573.

Substrate in data set [1]: CC(=O)SCCNC(=O)CCNC(=O)[C@H](O)C(C)(C)COP(=O)(O)OP(=O)(O)OC[C@H]1O[C@@H](n2cnc3c(N)ncnc32)[C@H](O)[C@@H]1OP(=O)(O)O
The data set is described as follows: purified protein. The following applies: pH 7.5; 25.0 °C.

Substrate in data set [2]: CC(C)C(=O)C(=O)O
The data set can be described thus: purified protein. To be noted: pH 7.5; 25.0 °C.

B1: MtIPMS (α-isopropylmalate synthase from Mycobacterium tuberculosis) (Mycobacterium tuberculosis H37Rv) (protein)
chain: MTTSESPDAYTESFGAHTIVKPAGPPRVGQPSWNPQRASSMPVNRYRPFAEEVEPIRLRNRTWPDRVIDRAPLWCAVDLRDGNQALIDPMSPARKRRMFDLLVRMGYKEIEVGFPSASQTDFDFVREIIEQGAIPDDVTIQVLTQCRPELIERTFQACSGAPRAIVHFYNSTSILQRRVVFRANRAEVQAIATDGARKCVEQAAKYPGTQWRFEYSPESYTGTELEYAKQVCDAVGEVIAPTPERPIIFNLPATVEMTTPNVYADSIEWMSRNLANRESVILSLHPHNDRGTAVAAAELGFAAGADRIEGCLFGNGERTGNVCLVTLGLNLFSRGVDPQIDFSNIDEIRRTVEYCNQLPVHERHPYGGDLVYTAFSGSHQDAINKGLDAMKLDADAADCDVDDMLWQVPYLPIDPRDVGRTYEAVIRVNSQSGKGGVAYIMKTDHGLSLPRRLQIEFSQVIQKIAEGTAGEGGEVSPKEMWDAFAEEYLAPVRPLERIRQHVDAADDDGGTTSITATVKINGVETEISGSGNGPLAAFVHALADVGFDVAVLDYYEHAMSAGDDAQAAAYVEASVTIASPAQPGEAGRHASDPVTIASPAQPGEAGRHASDPVTSKTVWGVGIAPSITTASLRAVVSAVNRAAR
In the case of B1, in the data set “purified protein [1]”, the Km worked out at 42 ± 12 µM and the kcat/Km was found to be 80000 ± 20000 M⁻¹ s⁻¹. In addition, in “purified protein [2]”, the Km amounted to 6.4 ± 1.4 µM and the catalytic efficiency (kcat/Km) stood at 500000 ± 130000 M⁻¹ s⁻¹.

In general, Km refers to the substrate concentration at which the rate is half of its maximum. By kcat/Km is commonly meant the second-order rate constant that governs catalysis at low substrate concentration.
